How the values were obtained:
[1] = biological target: Recombinant gI protein (~46 kDa) from HSV-2 (BMP1052b or BMP1292) (HSV-2); experiment: indirect ELISA on coated HSV-2 gI, one mouse
[2] = biological target: Recombinant gE protein (~51 kDa) from HSV-2 (BMP1049 or BMP1291) (HSV-2); experiment: indirect ELISA on coated HSV-2 gE
[3] = biological target: Recombinant gI protein (~46 kDa) from HSV-2 (BMP1052b or BMP1292) (HSV-2); experiment: indirect ELISA on coated HSV-2 gI
[4] = biological target: Recombinant gE/gI heterodimer protein (BMP1299) from HSV-1 (HSV-1) (UniProt P06487); experiment: indirect ELISA on coated HSV-1 gE/gI
UniProt P06487, sequence (P06487 whole entry, one chain of several): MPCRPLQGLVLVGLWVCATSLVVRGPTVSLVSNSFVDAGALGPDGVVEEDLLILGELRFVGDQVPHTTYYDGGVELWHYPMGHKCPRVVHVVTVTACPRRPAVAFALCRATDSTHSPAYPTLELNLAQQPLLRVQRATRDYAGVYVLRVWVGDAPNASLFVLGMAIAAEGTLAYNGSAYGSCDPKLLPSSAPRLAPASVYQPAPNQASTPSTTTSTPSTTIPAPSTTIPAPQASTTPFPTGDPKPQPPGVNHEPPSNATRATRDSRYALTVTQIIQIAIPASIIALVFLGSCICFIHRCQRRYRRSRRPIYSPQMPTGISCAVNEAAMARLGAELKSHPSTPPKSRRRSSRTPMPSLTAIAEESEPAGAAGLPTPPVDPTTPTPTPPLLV

## serum of CB6F1 mice injected with NaCl 150 mM (Example 1, group 6, negative control) (antibody)
[1]
  IgG titer: 135 EU/mL

## serum of CB6F1 mice injected with NaCl 150 mM (Example 3, group 7, negative control) (antibody)
[2]
  IgG titer: 17 EU/mL
[3]
  IgG titer: 17 EU/mL

## serum of CB6F1 mice injected with NaCl 150 mM (Example 2, group 7, negative control) (antibody)
[4]
  IgG titer: 11 EU/mL

Source: US20240091345A1
